From the supplement of paper PMC7877785 come the findings set out here.

± gives the uncertainty stated by the source.

This data set is described as follows: self-splicing fitness, log relative to wild type (ln ratio); higher = more splicing; Tetrahymena group I intron in knt gene, E. coli kanamycin selection, DiMSum; sequences stand for … in CUCUCU…GGAGGGAAAAGUUAUCAGGCAUGCACCUGGUAGCUAGUCUUUAAACCAAUAGAUUGCAUCGGUUUAAAAGGCAAGACCGUCAAAUUGCGGGAAAGGGGUCAACAGCCGUUCAGUACCAAGUCUCAGGGGAAACUUUGAGAUGGCCUUGCAAAGGGUAUGGUAAUAAGCUGACGGACAUGGUCCUAACCACGCAGCCAAGUCCUAAGUCAACAGAUCUUCUGUUGAUAUGGAUGCAGUUCACAGACUAAAUGUCGGUCGGGGAAGAUGUAUUCUUCUCAUAAGAUAUAGUCGGACCUCUCCUUAAUGGGAGCUAGCGGAUGAAGUGAUGCAACACUGGAGCCGCUGGGAACUAAUUUGUAUGCGAAAGUAUAUUGAUUAGUUUUGGAGUACUCGUGGUCG
The gist of the method: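 Six replicate transformations of E. coli BL21(DE3) with a pET-22b(+) library were grown overnight at 37°C or 30°C. The library randomised all eight P1ex-region intron nucleotides, the intron lying in the knt kanamycin-resistance gene, and plates were LB agar with or without 25 μg/mL kanamycin plus 100 μg/mL carbenicillin, 50 μM IPTG and 0.2% rhamnose. Pooled colonies were amplicon-sequenced on an Illumina HiSeq 2500, and fitness is the DiMSum error-weighted combination of wild-type-normalised replicate fold changes, kanamycin versus none.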

Consider ACGAAGCAAUAUUACGUGCG, for which the “self-splicing fitness (ln)” value (30 °C) was -1.35 ± 0.074 and the “self-splicing fitness (ln)” value (37 °C) was -1.36 ± 0.089.
On the same counts, the results for ACGAAGCAAUAUUACGUGCU are -2.96 ± 0.12 and -1.84 ± 0.14.
On the same counts, the results for ACGCAGCAAUAUUACGAAUC are -4.07 ± 0.34 and -2.11 ± 0.22.
In the case of ACGCAGCAAUAUUACGAAUU, the “self-splicing fitness (ln)” value reads like this: (30 °C) -4.01 ± 0.23; (37 °C) -1.48 ± 0.1.
In the case of ACGCAGCAAUAUUACGCGCA, the “self-splicing fitness (ln)” value runs as follows: (30 °C) -0.215 ± 0.096; (37 °C) 0.231 ± 0.11.
As to ACGCAGCAAUAUUACGCGUG, the “self-splicing fitness (ln)” value reads like this: (30 °C) -3.43 ± 0.18; (37 °C) -2.07 ± 0.17.
For ACGCAGCAAUAUUACGGAGU the same measures were -2.79 ± 0.093 and -2.08 ± 0.12.
On the same counts, the results for ACGCAGCAAUAUUACGGCCA are -0.646 ± 0.092 and 0.161 ± 0.12.
On the same counts, the results for ACGCAGCAAUAUUACGGCUU are -0.345 ± 0.046 and -0.227 ± 0.057.
In the case of ACGCAGCAAUAUUACGGGAU, the “self-splicing fitness (ln)” value is, setting by setting: (30 °C) -2.32 ± 0.079; (37 °C) -1.41 ± 0.089.
For ACGCAGCAAUAUUACGGUAU the same measures were -2.67 ± 0.15 and -1.03 ± 0.12.
ACGCAGCAAUAUUACGGUGA: the “self-splicing fitness (ln)” value is -1.39 ± 0.05 (30 °C) and 0.18 ± 0.063 (37 °C).
For ACGCAGCAAUAUUACGUCGA the same measures were -2.34 ± 0.11 and -1.34 ± 0.092.
For ACGCAGCAAUAUUACGUGCU the same measures were -3.65 ± 0.18 and -2.9 ± 0.19.
On to ACGCAGCAAUAUUACGUGUC, for which the “self-splicing fitness (ln)” value is -3.37 ± 0.14 (30 °C) and -2.71 ± 0.2 (37 °C).
Take ACGCAGCAAUAUUACGUUCC: the “self-splicing fitness (ln)” value (30 °C) was -1.71 ± 0.11 and the “self-splicing fitness (ln)” value (37 °C) is -2.26 ± 0.19.
ACGCAGCAAUAUUACGUUGU: the “self-splicing fitness (ln)” value was -3.57 ± 0.13 (30 °C) and -2.84 ± 0.12 (37 °C).
Take ACGGAGCAAUAUUACGAGUU: the “self-splicing fitness (ln)” value reads like this: (30 °C) -3.23 ± 0.22; (37 °C) -2.54 ± 0.33.
On the same counts, the results for ACGGAGCAAUAUUACGAUAU are -2.48 ± 0.21 and -2.12 ± 0.23.
For ACGGAGCAAUAUUACGAUGA the same measures were -2.56 ± 0.12 and -2.57 ± 0.19.
ACGGAGCAAUAUUACGAUUC: under “30 °C”, the “self-splicing fitness (ln)” value was -2.11 ± 0.32.
In the case of ACGGAGCAAUAUUACGCCUA, the “self-splicing fitness (ln)” value by setting is: (30 °C) -2.13 ± 0.28; (37 °C) -1.6 ± 0.27.
As for ACGGAGCAAUAUUACGCUAG, the “self-splicing fitness (ln)” value was -2.63 ± 0.25 (30 °C) and -2.16 ± 0.34 (37 °C).
Turning to ACGGAGCAAUAUUACGGCCA, the “self-splicing fitness (ln)” value (30 °C) was -1.69 ± 0.25 and the “self-splicing fitness (ln)” value (37 °C) was -2.11 ± 0.23.
As to ACGGAGCAAUAUUACGGGAC, the “self-splicing fitness (ln)” value (30 °C) is -2.93 ± 0.39 and the “self-splicing fitness (ln)” value (37 °C) is -2.69 ± 0.36.
For the sequence ACGGAGCAAUAUUACGGGUG, the “self-splicing fitness (ln)” value reads like this: (30 °C) -3.61 ± 0.18; (37 °C) -3.18 ± 0.22.
Turning to ACGGAGCAAUAUUACGUAGU, the “self-splicing fitness (ln)” value by setting is: (30 °C) -2.37 ± 0.11; (37 °C) -1.36 ± 0.12.
With ACGGAGCAAUAUUACGUCCG, the “self-splicing fitness (ln)” value is -3.13 ± 0.37 (30 °C) and -2.36 ± 0.42 (37 °C).
Consider ACGGAGCAAUAUUACGUGGC, for which the “self-splicing fitness (ln)” value (30 °C) is -4.63 ± 0.42.
ACGGAGCAAUAUUACGUUUA: the “self-splicing fitness (ln)” value was -3.14 ± 0.2 (30 °C) and -2.68 ± 0.21 (37 °C).
Regarding ACGGAGCAAUAUUACGUUUU, the “self-splicing fitness (ln)” value (37 °C) is -3.08 ± 0.2.
For the sequence ACGUAGCAAUAUUACGAAAC, the “self-splicing fitness (ln)” value was -2.02 ± 0.45 (30 °C) and -2.26 ± 0.4 (37 °C).
On the same counts, the results for ACGUAGCAAUAUUACGACAG are -2.56 ± 0.13 and -0.828 ± 0.13.
For ACGUAGCAAUAUUACGACUG, the “self-splicing fitness (ln)” value is, setting by setting: (30 °C) -1.78 ± 0.13; (37 °C) -0.836 ± 0.15.
